Experimental data published in patent US20240042018A1 (University of Washington, published 2024).

Columns and labels:
[1] = molecular target: T1, H1MI15-I53_dn5B trimer (A/Michigan/45/2015 HA 1-676 Y98F no lkr dn5B.SA.WELQ-H) (influenza A virus H1/A/Michigan/45/2015 …); experiment: in vitro nanoparticle assembly, SEC
[2] = molecular target: T1, H1MI15-I53_dn5B trimer …; experiment: in vitro nanoparticle assembly; SEC, DLS, nsTEM
[3] = molecular target: T1, H1MI15-I53_dn5B trimer …; experiment: in vitro nanoparticle assembly
[4] = molecular target: T1, H1MI15-I53_dn5B trimer …; experiment: in vitro nanoparticle assembly, SEC and SDS-PAGE

B1: I53_dn5A_1C5kPEG pentamer (designed binder)
chain: MGKYDGSKLRIGILHARGNAEIILALVLGALKRLQEFGVKRENIIIETVPGSFELPYGSKLFVEKQKRLGKPLDAIIPIGVLIRGSTPHFDYIADSTTHQLMKLNFELGIPVIFGVITADTCEQAEARAGLIEGKMHNHGEDWGAAAVEMATKFNGGWELQLEGSHHHHHH
binding result [1]: binds

B2: I53_dn5A_2C2kPEG pentamer (designed binder)
chain: MGKYDGSKLRIGILHARGNAEIILALVLGALKRLQEFGVKRENIIIETVPGSFELPYGSKLFVEKQKRLGKPLDAIIPIGVLIRGCTPHFDYIADSTTHQLMKLNFELGIPVIFGVITADTCEQAEARAGLIEGKMHNHGEDWGAAAVEMATKFNGGWELQLEGSHHHHHH
binding result [2]: binds

B3: I53_dn5A_S84C_D120C pentamer coupled to 1 kDa PEG (designed binder)
chain: MGKYDGSKLRIGILHARGNAEIILALVLGALKRLQEFGVKRENIIIETVPGSFELPYGSKLFVEKQKRLGKPLDAIIPIGVLIRGCTPHFDYIADSTTHQLMKLNFELGIPVIFGVITADTCEQAEARAGLIEGKMHNHGEDWGAAAVEMATKFNGGWELQLEGSHHHHHH
binding result [2]: binds

B4: I53_dn5Acp7 PAS pentamer (designed binder)
chain: MGSHHHHHHGSDEQAEERAGTKAGNHGEDWGAAAVEMATKFNGSGGSGKYDGSKLRIGILHARGNAEIILELVLGALKRLQEFGVKRENIIIETVPGSFELPYGSKLFVEKQKRLGKPLDAIIPIGVLIRGSTAHFDYIADSTTHQLMKLNFELGIPVIFGVLTTESGGSASPAAPAPASPAAPAPSAPAAASPAAPAPASPAAPAPSAPAAASPAAPAPASPAAPAPSAPAA
binding result [2]: binds

B5: I53_dn5A_2gly pentamer (designed binder)
chain: KYDGSKLRIGILHARGNAEIILELVLGALKRLQEFGVKRENIIIETVPGSFELPYGSKLFVEKQKRLGKPLDAIIPIGVLIRGNDTHFDYIADSTTHQLMKLNFELGIPVIFGVLTTNSTEQAEERAGTKAGNHGEDWGAAAVEMATKFNLEEQKLISEEDLHHHHHH
binding result [3]: binds

B6: I53_dn5A_D120C pentamer coupled to 1 kDa PEG (designed binder)
chain: MGKYDGSKLRIGILHARGNAEIILALVLGALKRLQEFGVKRENIIIETVPGSFELPYGSKLFVEKQKRLGKPLDAIIPIGVLIRGSTPHFDYIADSTTHQLMKLNFELGIPVIFGVITADTCEQAEARAGLIEGKMHNHGEDWGAAAVEMATKFNGGWELQLEGSHHHHHH
binding result [4]: binds

B7: I53_dn5A_D120C pentamer coupled to 2 kDa PEG (designed binder)
chain: MGKYDGSKLRIGILHARGNAEIILALVLGALKRLQEFGVKRENIIIETVPGSFELPYGSKLFVEKQKRLGKPLDAIIPIGVLIRGSTPHFDYIADSTTHQLMKLNFELGIPVIFGVITADTCEQAEARAGLIEGKMHNHGEDWGAAAVEMATKFNGGWELQLEGSHHHHHH
binding result [4]: binds
